{"source": "patent US20130065259A1", "system": "SNAPtide (FITC/DABCYL), List Biological Laboratories product #521", "data": [{"substance": "BoNT/A complex", "values": [{"measurement": "Km, non-bead based assay (free BoNT/A), SNAPtide conversion", "result": "typical Km=0.7 µM"}, {"measurement": "fold change of Km, immobilized against free enzyme", "result": "3.2-fold lower"}]}]}
